Assay [1] has as its target T1, Native seprase isolated from LOX cells (human (isolated from the human melanoma …, UniProt Q12884 1-760)).
T1 sequence (looked up): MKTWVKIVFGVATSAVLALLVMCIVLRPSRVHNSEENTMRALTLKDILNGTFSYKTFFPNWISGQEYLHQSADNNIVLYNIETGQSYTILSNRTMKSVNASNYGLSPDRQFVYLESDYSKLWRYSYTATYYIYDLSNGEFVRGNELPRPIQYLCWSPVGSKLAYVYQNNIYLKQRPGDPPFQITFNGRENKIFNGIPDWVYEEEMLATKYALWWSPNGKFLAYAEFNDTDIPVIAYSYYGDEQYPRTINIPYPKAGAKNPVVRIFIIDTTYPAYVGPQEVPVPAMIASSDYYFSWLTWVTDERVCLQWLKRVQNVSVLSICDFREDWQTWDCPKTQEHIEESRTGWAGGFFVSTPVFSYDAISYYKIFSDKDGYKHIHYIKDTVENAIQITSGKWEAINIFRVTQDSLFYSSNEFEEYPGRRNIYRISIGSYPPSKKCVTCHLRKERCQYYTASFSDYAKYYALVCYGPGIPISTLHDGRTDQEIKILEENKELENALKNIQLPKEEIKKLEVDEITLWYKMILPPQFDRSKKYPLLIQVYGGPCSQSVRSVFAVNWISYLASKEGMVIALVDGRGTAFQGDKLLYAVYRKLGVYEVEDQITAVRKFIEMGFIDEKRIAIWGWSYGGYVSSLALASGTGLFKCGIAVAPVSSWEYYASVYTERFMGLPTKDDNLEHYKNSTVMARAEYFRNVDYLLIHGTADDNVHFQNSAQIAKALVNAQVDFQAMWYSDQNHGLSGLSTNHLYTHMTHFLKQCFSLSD
Briefly: cell-based or functional assay.

The target in assay [2] is T2, Seprase on seprase-expressing LOX cells (human (human melanoma cell line LOX), UniProt Q12884 1-760).
T2 sequence (looked up): T1 sequence (looked up)
Briefly: cell-based or functional assay.

For assay [3], the target named is T1, Native seprase isolated from LOX cells. The experiment in a line: inhibition kinetic analysis; reference is DPP4.
Assay [4] has as its target DPP4. The experiment in a line: enzyme inhibition kinetics, prolyl peptidase activity of DPP4 with Gly-Pro-pNA, time progress curves (FIG. 1E).
The target in assay [5] is T1, Native seprase isolated from LOX cells. Briefly: enzyme inhibition kinetics, prolyl dipeptidase activity of seprase with Gly-Pro-pNA, time progress curves (FIG. 1D).
Assay [6] concerns the target T2, Seprase on seprase-expressing LOX cells. The experiment in a line: ELISA and immunofluorescence on LOX cells.
For assay [7], the target named is T1, Native seprase isolated from LOX cells. The experiment in a line: phage display panning and phage ELISA on seprase-coated wells (positive clone: OD405 experiment/OD405 control >3.0); peptide displayed on phage.
The target in assay [8] is T2, Seprase on seprase-expressing LOX cells. The experiment in a line: ELISA and immunofluorescence on seprase-expressing LOX cells.

Where no end group is shown, it is not given here.

By Ki is commonly meant a measure of affinity in units of concentration, obtained from inhibition or displacement. Read a high Ki as lower affinity.

DPP4, sequence (P27487 whole entry): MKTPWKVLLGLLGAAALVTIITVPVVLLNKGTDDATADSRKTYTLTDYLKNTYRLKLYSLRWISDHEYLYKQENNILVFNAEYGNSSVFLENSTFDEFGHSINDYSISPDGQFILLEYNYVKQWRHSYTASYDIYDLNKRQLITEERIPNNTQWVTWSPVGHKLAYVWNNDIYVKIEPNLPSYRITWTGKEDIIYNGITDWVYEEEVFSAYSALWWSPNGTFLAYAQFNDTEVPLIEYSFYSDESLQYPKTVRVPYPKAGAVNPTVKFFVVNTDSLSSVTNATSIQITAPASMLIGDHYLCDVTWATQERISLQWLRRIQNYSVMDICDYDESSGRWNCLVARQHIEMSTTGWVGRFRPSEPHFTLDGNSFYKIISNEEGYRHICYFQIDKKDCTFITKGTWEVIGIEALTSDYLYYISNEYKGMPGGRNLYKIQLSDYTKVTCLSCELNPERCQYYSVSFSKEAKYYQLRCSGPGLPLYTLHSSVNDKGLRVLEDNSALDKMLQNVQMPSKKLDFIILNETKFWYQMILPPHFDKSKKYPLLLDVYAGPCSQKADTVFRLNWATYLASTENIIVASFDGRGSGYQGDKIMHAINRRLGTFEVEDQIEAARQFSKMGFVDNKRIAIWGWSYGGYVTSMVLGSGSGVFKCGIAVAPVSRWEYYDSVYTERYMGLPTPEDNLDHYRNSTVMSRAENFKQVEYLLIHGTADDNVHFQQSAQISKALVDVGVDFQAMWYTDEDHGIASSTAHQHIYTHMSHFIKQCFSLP

CDMWERVSRC (also: cyclic peptide, mode of cyclisation not given here) [cyclic peptide CDMWERVSRC]: the “IC50, inhibition of the gelatinolytic activity of seprase (DQ-gelatin assay)” value in assay [1] was less than 10 µM. Further, in assay [2], the “IC50 on the overall collagen degradation by LOX cells (Bodipy FL C5 labelled type I collagen films)” value was roughly 200 µM. The “fold more effective against seprase than DPP4” value in assay [3] was 100 times. Also, the figures for the Ki in assay [4] and in assay [5] were 40 µM and 0.4 µM, respectively.

RKISASEFDRPLR (Control) [control peptide RKISASEFDRPLR]: the binding result in assay [6] is “no binding”.

B1: DMWERVSR (peptide)
peptide: DMWERVSR
notes: tested as a synthetic linear peptide in the enzyme assays
As to B1, in assay [7], the binding result is on record as “binds”.

GGAGDMWERVSRG: the binding result in assay [8] was “binds”.

B2: DLDYLSKF (peptide)
peptide: DLDYLSKF
notes: as for B1
On to B2, for which the binding result in assay [7] is reported as “binds”.
